Results on two molecules are retold here after article PMC9016352, “Disease‐linked TDP‐43 hyperphosphorylation suppresses TDP‐43 condensation and aggregation”.

The target of one data set is TDP‐43 (UniProt Q13148). As to the kind of experiment: condensate sedimentation assay, TDP-43 Western blot. The note with it: reference: unmodified TDP-43 (no CK1δ, no ATP); sites S403,S404,S409,S410. Background: A western blot detects proteins with antibodies after separation by electrophoresis.
In a further data set the target is TDP-43-MBP-His6 Wt (human (hTDP-43)?, UniProt Q13148 1-414). Nature of the data set: EMSA; 20 mM NaPO4 pH 8, 150 mM NaCl, 1 mM DTT, 5 mM MgCl2, 0.5 mg/ml BSA, 0.1 mg/ml yeast tRNA, 5% glycerol, 1 U/ul RNase inhibitor, 20 min RT; 16 nM Cy5-RNA, 0-1.6 uM protein; 6% native PAGE 0.5x TBE. The note with it: protein: recombinant; tags: C-terminal TEV site-MBP-His6; label: 5' Cy5. On the technique in general: A gel shift assay detects complexes by their altered migration in electrophoresis.

On to “TDP‐43 (from UniProt Q13148) TDP-43 + CK1δ + ATP”, for which, in the data set with TDP‐43, the “other: S/(S+C) ratio (higher = less condensate)” value was “weaker; reference ~0.25”.

With UGUGUGUGUGUGUGUGUGUGUGUG (ssRNA) [(UG)12 RNA], in the data set with TDP-43-MBP-His6 Wt, the binding result is on record as “binds”.
